Experiment: yeast display, Sf9 membrane polyspecificity reagent, FACS + sequencing; frameworks hold sequencing errors
Outline: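 Galactose induction of a Saccharomyces cerevisiae BJ5465 synthetic nanobody display library ran 36–48 hours. The cells were then stained for 1 hour at 4 °C with 10% biotinylated, detergent-solubilized Sf9 membrane reagent, pulled down on streptavidin microbeads and FACS-sorted into low and high (top ~1%) gates on expression and reagent-binding fluorescence. Labels for polyreactivity follow the gate of origin.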
With “QVQLVESGGGLVQAGGSLRLSCAASGRTFRSNAMGWYRQAPGKERELVAAISKRGASTYYADSVKGRFTISRDNAKNTVYLQMNSLKPEVTAVYYCNTGAAKHAYDYWGQGTQVTVSS” the “polyreactivity (PSR sort gate)” value was “high polyreactivity”. For “QVQLVESGGGLVQAGGSLRLSCAASGLTFSVYAMGWYRQAPGKERELVAAISGSGGSTYYADSVKGRFTISRDNAKNTVYLQMNSLKPEDTAVYYCAARYDVHYDGMDYWGLGTQVTVSS”, the “polyreactivity (PSR sort gate)” value was “low polyreactivity”. For “QVQLVESGGGLVQAGGSLRLSCAASGSIFGSNAMGWYRQAPGKEREFVAVITWRVGDTYYADSVKGRFTISRDNAKNTVYLQMYSLKPEDTAVYYCNVDWKVYGAPDYRIAWKYDYWGQGTQVTVSS”, the “polyreactivity (PSR sort gate)” value was “low polyreactivity”. For “QVQLVESGGGLVQAGGSLRLSCAASGLIFTYYAMGWYRQAPGKERELVAGISSGTNTNYADSVKGRFTISRDNAKNTVYLQMNSLKPEDTALYYCATTRGYQFVAYGYWGQGTQVTVSS”, the “polyreactivity (PSR sort gate)” value was “low polyreactivity”. For “QVQLVESGGGLVQAGGSLSLSCAASGIIFYDYAMGWYRQAPGKERELVAVISRSGGSTYYADSVKGRFTISRDNAKNTVYLQMNSLNPEDTAVYYCARAYSLRVVTGDYWGQGTQVTVSS”, the “polyreactivity (PSR sort gate)” value was “high polyreactivity”. For “QVQLVESGGGLVQAGGSLRLSCAASGIIFAYYARRWYRHAPGKERELVAAISWSGTSTYYADSVKGRFTISRDNAKNTVYLQMNSLKPEDTAVYYCNAYGLYSDMDYWGQGTQVTVSS”, the “polyreactivity (PSR sort gate)” value was “high polyreactivity”. In the case of “QVQLVESGGGLVQAGCSLRLSCSASGRIFGYYAKGWYRQAPGKERELVARISGRGGSTYYADSVKVRFSISRDNAQKTVILQMNSLNPEDTAVYYCNVVLSFWKYYAYDQGDYWGQGTQVTVSS”, the “polyreactivity (PSR sort gate)” value is reported as “low polyreactivity”. For “QVQLVESGGGLVQAGGSLRLSCAASGFIFVVYTMGGYRQEPGKVRELVAAITSGGSTYYADSVKGRFTISRDNAKNTVYLQMNSLKPEDTAVYYCNALASRYQAYYYWGQGTQVTVSS”, the “polyreactivity (PSR sort gate)” value was “low polyreactivity”. In the case of “QVQLVESGGGVVQAGGSLRLSCAASGRIFVSNPMGWYRQAPGKERELVAAITSGGRTNYADSVKGRFTISRDNAKNTVYLQMNSLKPEDTAVYYCNARGYSSRGFRRYSTKYDYWGQGTQVTVSS”, the “polyreactivity (PSR sort gate)” value is reported as “high polyreactivity”. With “QVQIVESGGCLVQAGGSLRLSCAASGRTFGRNAMGWYRQAPGKERELVAGISIGGGTTYYADSVKGRFTISRDNAKNTVYLQMNSLKPEDTAVYYCAARSWSYLHRYGYWGQGTQVTVSS” the “polyreactivity (PSR sort gate)” value was “high polyreactivity”. In the case of “QVQRVESGGALVQAGGSHRLSCAASGSIFYAYAMGWYRLAPGKERELVAAIRSSDSRTYYADSVKGRFTISRDNAKKTVYLQMNCLKPEETAVYYCAAEGSRNVKFDYCGQGTQVTVSS”, the “polyreactivity (PSR sort gate)” value is reported as “high polyreactivity”. With “QVQLVESGGGLVQAGGSLRLSCAASGITFYVYAMGWYRPAPGKVRELVAAINYDSGSTYYADSVKGRFTISRDNAKNTVYLQMNSLKPEDTAVYYCATDGVNPFYAYDYWGQGTQVTVSS” the “polyreactivity (PSR sort gate)” value was “low polyreactivity”. For “QVQLVESGGGLVQAGGSLRLSCAASGSIFAGNAMGWYRQSPGKERELVAAITWRSGRTYYADSVKGRFTISRDNAKNTVYLEMNSLKPEDTAVYYCARGRYGYTAPFRRWYFRYDYWGQGTQVTVSS”, the “polyreactivity (PSR sort gate)” value was “high polyreactivity”. In the case of “QVQLGESGGGLVQAGGSLRLSCAASGSIFQPYAMGWYRQAPGKEREFVAAISRSGGMTYYADSVKGRFTISRDNEKNTVYLQMNSLKPEDTAVYYCATGRQVVRSYSEGDYSGQGTQVTVSS”, the “polyreactivity (PSR sort gate)” value is reported as “low polyreactivity”. For “QVQLVESGAGLVQAGASLRLICAASGRTFPDYAMGWYRQAPGTERELVAAIYSGGGTNYADSVKGRFTISRDNAKNTVYLQMNSLKQEDTAVYYCAATGVPGWVGFDYWGQGTQVTVSS”, the “polyreactivity (PSR sort gate)” value was “low polyreactivity”. For “QVQLVESGGGLVQAGGSLRLSCAASGRTFRPNVMGWYRQAPGKERELVAAISNGGRTYYADSVKGRFTISRDNAKNTVFLQMNCLKAEYTAVYYCNKVRSPWYDYWVQGTQVTVSS”, the “polyreactivity (PSR sort gate)” value was “high polyreactivity”.

— the nanobody polyreactivity screen of Harvey et al. (2022)
